The values below come from the supplement of paper PMC10567573.

B1: STEAP1 (parent)
chain: LWKMKPRRNLEEDDYLHKDTGETS
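Also: lentivirally expressed fusions sorted by FACS into six bins by GFP to DsRed ratio, PSI derived from sequencing read proportions per bin multiplied by bin number.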

Variants of B1 are the subject of this series. In words: protein stability index of a GFP-peptide fusion (GPS, HEK-293T) (PSI 1-6); higher = more stable. As to conditions: c terminus: a fixed tail appended.
As for LWKMKERRNLEEDDYLHKDTGETS, the protein stability index amounted to 5.13.

Take LWKMKRRRNLEEDDYLHKDTGETS: the protein stability index turned out to be 3.65.

Take LWKMKCRRNLEEDDYLHKDTGETS: the protein stability index is 3.52.

Take LWKMKMRRNLEEDDYLHKDTGETS: the protein stability index is 3.77.

On to LWKMKQRRNLEEDDYLHKDTGETS, for which the protein stability index came out at 3.94.

As to LWKMKFRRNLEEDDYLHKDTGETS, the protein stability index amounted to 3.62.

On to LWKMKSRRNLEEDDYLHKDTGETS, for which the protein stability index amounted to 4.57.

LWKMKGRRNLEEDDYLHKDTGETS: the protein stability index amounted to 4.42.

Take LWKMKLRRNLEEDDYLHKDTGETS: the protein stability index came to 3.86.

Consider LWKMKWRRNLEEDDYLHKDTGETS, for which the protein stability index was 3.16.

LWKMKHRRNLEEDDYLHKDTGETS: the protein stability index amounted to 4.

With LWKMKYRRNLEEDDYLHKDTGETS, the protein stability index was 3.96.

As for LWKMKKRRNLEEDDYLHKDTGETS, the protein stability index was 4.1.

In the case of LWKMKDRRNLEEDDYLHKDTGETS, the protein stability index stood at 4.41.

With LWKMKTRRNLEEDDYLHKDTGETS, the protein stability index turned out to be 4.47.

Consider LWKMKVRRNLEEDDYLHKDTGETS, for which the protein stability index was 3.96.

For LWKMKIRRNLEEDDYLHKDTGETS, the protein stability index stood at 3.94.

Regarding LWKMKNRRNLEEDDYLHKDTGETS, the protein stability index was determined as 4.52.

As to LWKMKARRNLEEDDYLHKDTGETS, the protein stability index is 3.94.

For the variant LWKMKPRKNLEEDDYLHKDTGETS, the protein stability index was determined as 4.49.

As to LWKMKPRWNLEEDDYLHKDTGETS, the protein stability index stood at 3.82.

With LWKMKPRENLEEDDYLHKDTGETS, the protein stability index amounted to 4.83.

With LWKMKPRHNLEEDDYLHKDTGETS, the protein stability index is 4.1.

Regarding LWKMKPRANLEEDDYLHKDTGETS, the protein stability index was 4.61.

As for LWKMKPRTNLEEDDYLHKDTGETS, the protein stability index stood at 4.47.

On to LWKMKPRDNLEEDDYLHKDTGETS, for which the protein stability index came to 4.74.

LWKMKPRINLEEDDYLHKDTGETS: the protein stability index came out at 4.22.

LWKMKPRFNLEEDDYLHKDTGETS: the protein stability index came to 3.93.

For the variant LWKMKPRLNLEEDDYLHKDTGETS, the protein stability index stood at 4.03.

Turning to LWKMKPRYNLEEDDYLHKDTGETS, the protein stability index came to 4.04.

For LWKMKPRSNLEEDDYLHKDTGETS, the protein stability index was 4.43.

With LWKMKPRMNLEEDDYLHKDTGETS, the protein stability index was found to be 4.6.

On to LWKMKPRNNLEEDDYLHKDTGETS, for which the protein stability index was 4.53.

As for LWKMKPRVNLEEDDYLHKDTGETS, the protein stability index was found to be 4.08.

As to LWKMKPRGNLEEDDYLHKDTGETS, the protein stability index was 4.07.

Regarding LWKMKPRPNLEEDDYLHKDTGETS, the protein stability index turned out to be 4.61.

With LWKMKPRQNLEEDDYLHKDTGETS, the protein stability index worked out at 4.67.

Take LWKMKPRCNLEEDDYLHKDTGETS: the protein stability index is 3.79.

Take LWKMKPCRNLEEDDYLHKDTGETS: the protein stability index was 4.26.

For the variant LWKMKPWRNLEEDDYLHKDTGETS, the protein stability index was determined as 4.07.

LWKMKPHRNLEEDDYLHKDTGETS: the protein stability index turned out to be 4.69.

Turning to LWKMKPKRNLEEDDYLHKDTGETS, the protein stability index is 4.69.

Consider LWKMKPLRNLEEDDYLHKDTGETS, for which the protein stability index came to 4.4.

Turning to LWKMKPDRNLEEDDYLHKDTGETS, the protein stability index is 5.25.

For LWKMKPYRNLEEDDYLHKDTGETS, the protein stability index was 3.94.

For the variant LWKMKPQRNLEEDDYLHKDTGETS, the protein stability index was determined as 4.62.

Take LWKMKPTRNLEEDDYLHKDTGETS: the protein stability index was 4.85.

For LWKMKPARNLEEDDYLHKDTGETS, the protein stability index was 4.83.

For LWKMKPVRNLEEDDYLHKDTGETS, the protein stability index turned out to be 4.14.

For LWKMKPPRNLEEDDYLHKDTGETS, the protein stability index was found to be 4.62.

Take LWKMKPNRNLEEDDYLHKDTGETS: the protein stability index stood at 4.71.

As for LWKMKPFRNLEEDDYLHKDTGETS, the protein stability index came to 3.55.

For the variant LWKMKPMRNLEEDDYLHKDTGETS, the protein stability index is 4.51.

In the case of LWKMKPGRNLEEDDYLHKDTGETS, the protein stability index turned out to be 4.42.

Consider LWKMKPIRNLEEDDYLHKDTGETS, for which the protein stability index was determined as 4.26.

Consider LWKMKPERNLEEDDYLHKDTGETS, for which the protein stability index came to 4.47.

Regarding LWKMKPSRNLEEDDYLHKDTGETS, the protein stability index turned out to be 4.58.

For LWKSKPRRNLEEDDYLHKDTGETS, the protein stability index came to 4.69.

For LWKQKPRRNLEEDDYLHKDTGETS, the protein stability index came out at 4.95.

Take LWKKKPRRNLEEDDYLHKDTGETS: the protein stability index came to 4.19.

Regarding LWKNKPRRNLEEDDYLHKDTGETS, the protein stability index amounted to 4.69.

As to LWKLKPRRNLEEDDYLHKDTGETS, the protein stability index was 4.55.

Regarding LWKWKPRRNLEEDDYLHKDTGETS, the protein stability index was found to be 4.14.

With LWKTKPRRNLEEDDYLHKDTGETS, the protein stability index was 4.62.

Regarding LWKPKPRRNLEEDDYLHKDTGETS, the protein stability index turned out to be 4.41.

LWKYKPRRNLEEDDYLHKDTGETS: the protein stability index came out at 4.41.

As to LWKRKPRRNLEEDDYLHKDTGETS, the protein stability index amounted to 4.47.

For the variant LWKIKPRRNLEEDDYLHKDTGETS, the protein stability index was determined as 4.36.

Consider LWKVKPRRNLEEDDYLHKDTGETS, for which the protein stability index was found to be 4.41.

Consider LWKMEPRRNLEEDDYLHKDTGETS, for which the protein stability index was found to be 4.74.

Turning to LWKMVPRRNLEEDDYLHKDTGETS, the protein stability index is 3.94.

For LWKMWPRRNLEEDDYLHKDTGETS, the protein stability index was 2.86.

Turning to LWKMTPRRNLEEDDYLHKDTGETS, the protein stability index was found to be 4.56.

In the case of LWKMCPRRNLEEDDYLHKDTGETS, the protein stability index worked out at 4.45.

As to LWKMHPRRNLEEDDYLHKDTGETS, the protein stability index is 4.4.

As to LWKMDPRRNLEEDDYLHKDTGETS, the protein stability index is 4.8.

Consider LWKMSPRRNLEEDDYLHKDTGETS, for which the protein stability index was 5.01.

With LWKMFPRRNLEEDDYLHKDTGETS, the protein stability index amounted to 2.77.

LWKMQPRRNLEEDDYLHKDTGETS: the protein stability index turned out to be 4.86.

LWKMGPRRNLEEDDYLHKDTGETS: the protein stability index worked out at 4.5.

As for LWKMPPRRNLEEDDYLHKDTGETS, the protein stability index is 4.91.

As for LWKMIPRRNLEEDDYLHKDTGETS, the protein stability index worked out at 3.36.

In the case of LWKMMPRRNLEEDDYLHKDTGETS, the protein stability index worked out at 4.

As for LWKMLPRRNLEEDDYLHKDTGETS, the protein stability index was 3.98.

On to LWKMNPRRNLEEDDYLHKDTGETS, for which the protein stability index turned out to be 4.32.

In the case of LWKMYPRRNLEEDDYLHKDTGETS, the protein stability index stood at 3.9.

Consider LWKMAPRRNLEEDDYLHKDTGETS, for which the protein stability index was 3.93.

Turning to LWKMRPRRNLEEDDYLHKDTGETS, the protein stability index came out at 4.11.

Consider LWKMKPRRDLEEDDYLHKDTGETS, for which the protein stability index was 4.53.

As for LWKMKPRRGLEEDDYLHKDTGETS, the protein stability index turned out to be 4.58.

For the variant LWKMKPRRELEEDDYLHKDTGETS, the protein stability index was 4.49.

For LWKMKPRRFLEEDDYLHKDTGETS, the protein stability index amounted to 4.06.

LWKMKPRRCLEEDDYLHKDTGETS: the protein stability index came to 3.81.

For the variant LWKMKPRRALEEDDYLHKDTGETS, the protein stability index worked out at 4.41.
